B1: 20C3 (antibody, V domains shown)
VH: QVQLQESGPGLVKPSETLSLTCTVSGGSISSYYWSWIRQPPGKGLEWIGYISDSGSTNYNPSLKSRIPISVDTSKNQFSLKLSSVTAADTAVYYCARWQLAHDAFDIWGQGTMVTVSS
VL: QSALTQPASVSGSPGQSITISCTGTSSDVGGYNYVSWYQQHPGKAPKLMIYEVSYRPSGVSNRFSGSKSGSTASLTISGLQPEDEADYYCSSYAISSTLVFGGGTKMTVL
notes: Parental anti-sclerostin antibody, described as directed against the loop 2 region of sclerostin
B2: 27H6 (antibody, V domains shown)
VH: EVQLVESGGGLVQPGGSLRLSCAASGFTFSSYSMNWVRQAPGKGLEWVSYISSSGSSIYYADSVKGRFTISRDNAKNSLYLQMNSLRDEDTAVYYCARERYYGDTPFDYWGQGTLVTVSS
VL: DIVMTQTPLSLPVTPGEPASISCRSSQSLLNSVDGSTNLDWYLQKPGQSPQLLIYTLSYRASGVPDRFSGSGSGTDFTLKISRVEAEDVGVYYCMQRIEFPLTFGGGTKVEIK
notes: also called sclerostin antibody 27H6

Molecular target: T1, human sclerostin (human, UniProt Q9BQB4 24-213, biotin-labeled (site not stated))
T1 construct: also called biotin-labeled human sclerostin; SOST
T1 sequence: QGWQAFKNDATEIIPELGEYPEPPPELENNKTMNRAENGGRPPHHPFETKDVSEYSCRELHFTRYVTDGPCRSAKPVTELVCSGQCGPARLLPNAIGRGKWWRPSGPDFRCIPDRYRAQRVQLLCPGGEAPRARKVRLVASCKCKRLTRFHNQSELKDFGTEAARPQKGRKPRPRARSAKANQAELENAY
Assay: competition alpha screen, increasing antibody against his-tagged LRP6 / biotin-labeled human sclerostin

| Binder | binding result |
| --- | --- |
| B1 | binds |
| B2 | binds |
